These results are taken from patent publication US9376706B2, “Protease detection” (Mologic Limited, priority 2007, dated 2016).

Square brackets hold non-standard residues; d marks the D form. Ends that are not written are not given here. ANA = 2-amino naphthoic acid; 4Abz = Nc1ccc(C(=O)O)cc1

What all share (assay type): biochemical
For assay [1], the target named is T1, Neutrophil Elastase (Homo sapiens, UniProt P08246).
T1 sequence (P08246 30-267): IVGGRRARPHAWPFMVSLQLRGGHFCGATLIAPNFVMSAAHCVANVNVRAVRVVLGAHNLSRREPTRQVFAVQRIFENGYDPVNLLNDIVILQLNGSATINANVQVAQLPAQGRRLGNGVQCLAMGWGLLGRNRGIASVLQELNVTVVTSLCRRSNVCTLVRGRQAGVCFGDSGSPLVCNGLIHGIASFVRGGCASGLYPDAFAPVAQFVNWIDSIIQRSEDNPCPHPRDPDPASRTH
The assay can be described thus: Vertical flow column assay, peptide conjugated to frits, elastase, DMAC development. The note with it: column with elastase, flow contact time approx. 30 seconds. Here is the method: Another assay format was used to test for the activity of the enzyme Neutrophil Elastase in the presence of the two peptides, AAPV-[pABA]-GGC (SEQ ID NO: 3) and AAPV-[ANA]-GGC (SEQ ID NO: 4). The C-terminal cysteine group of the peptides was used as a means of conjugation to a solid surface. Sintered polyethylene frits functionalised with iodoacetyl groups were rinsed in 50 mM sodium phosphate, 5 mM EDTA, pH 7.4 for 10 minutes. The frits were then transferred to a solution of 0.5 mg/ml peptide (in PBS) for sensitisation for 30 minutes. The frits were then rinsed once more in phosphate EDTA buffer for 10 minutes. The frits were loaded into empty columns and 200 μl of elastase was added with an approximate flow contact time of 30 seconds. To develop the assay, 100 μl of working DMAC solution (0.3 mg/ml DMAC, 50 mM HCl) was passed through the column.

Assay [2] deals with T1, Neutrophil Elastase. Briefly: Plate assay of peptides as elastase substrates with DMAC visualisation. The note with it: for result for elastase activity (well colour): 37° C., 30 minutes, pH 7.4; for suitability as elastase substrate: conclusion of Examples 3A and 3B. Here is the method: Two peptides, AAPV-[pABA]-GGC (SEQ ID NO: 3) and AAPV-[ANA]-GGC (SEQ ID NO: 4), were synthesised, wherein pABA is para-amino benzoic acid and ANA is 2-amino naphthoic acid. Both peptides were tested for their suitability as a substrate for the Neutrophil Elastase enzyme. The electrospray mass spectrums of AAPV-[pABA]-GGC (SEQ ID NO: 3) and AAPV-[ANA]-GGC (SEQ ID NO: 4) are shown in FIGS. 10A and 10B respectively.
Varying concentrations of Elastase (5 μl of 18, 9, 6 and 3 units/ml dilutions) were added to 0.5 mg/ml peptide (5 μl) in separate plate wells. The mixtures were diluted with 20 μl of Buffer (50 mM phosphate, 5 mM EDTA; pH 7.4) and incubated at 37° C. for 30 minutes. 15 μl of working DMAC solution (0.3 mg/ml DMAC, 50 mM HCl) was added to each plate well and mixed thoroughly to visualize.

The target in the next assay is T2, papain (Carica papaya, UniProt P00784).
T2 sequence (P00784 134-345): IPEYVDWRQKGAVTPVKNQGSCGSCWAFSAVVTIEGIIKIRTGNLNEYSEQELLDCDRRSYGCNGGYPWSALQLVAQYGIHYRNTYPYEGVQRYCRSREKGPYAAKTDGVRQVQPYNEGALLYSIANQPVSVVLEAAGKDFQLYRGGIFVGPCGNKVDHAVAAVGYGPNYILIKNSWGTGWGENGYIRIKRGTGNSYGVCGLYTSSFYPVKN
The assay can be described thus: Booklet assay for detection of papain with DMAC visualisation. From the text:
The polypeptides of the present invention are, in some embodiments, incorporated into a product for detecting a protease enzyme in a sample which takes the form of a booklet. A suitable such booklet is disclosed in PCT application No. PCT/GB2007/000643 which is incorporated herein by reference. Referring to FIG. 3 a booklet 1 in accordance with this embodiment will now be described. The booklet comprises first and second sheets 2, 3 of planar substrate such as cardboard, connected by a hinge 4. In the centre of the first sheet there is provided a thin reaction film 25 on top of an absorbent pad 5. The reaction film 25 is impregnated with the chromogenic polypeptide and can be made from PVA. On the centre of the second sheet 3 there is provided an aperture 6 which is aligned with the reaction film 25 and the absorbent pad 5. The aperture 6 is covered by a visualisation film 7, such that the visualisation film 7 lies between the aperture 6 and the reaction film 25 when the first and second sheets 2, 3 are pressed against each other. The visualisation film 7 is impregnated with DMAC and HCl. Optionally, the reaction film 25 and the absorbent pad 5 are covered with a removable film (not shown) prior to use so that the reaction film 25 and the absorbent pad 5 are kept sealed from the environment. […]

With “AAPV-[ANA]-GGC (AAPV[ANA]GGC) [chromogenic peptide, ANA is 2-amino naphthoic acid]”, in the assay with Neutrophil Elastase [1], the “result of vertical flow assay (column colour)” value is “negative results”. In the assay with Neutrophil Elastase [2] (all wells with elastase), the “result for elastase activity (well colour)” value was “elastase activity was not detected”. Moreover, the “suitability as elastase substrate” value with Neutrophil Elastase [2] is given as “poor elastase substrate”.
Consider “AAPV-[pABA]-GGC (AAPV[4Abz]GGC) [chromogenic peptide, pABA is para-amino benzoic acid]”, for which, in the assay with Neutrophil Elastase [1], the “result of vertical flow assay (column colour)” value is on record as “positive result”. In addition, the “suitability as elastase substrate” value in the assay with Neutrophil Elastase [2] was “significantly more suitable as a substrate for elastase”. Further, the “result for elastase activity (well colour)” value was “weak positive result” in the assay with Neutrophil Elastase [2] (final elastase 0.5 units/ml) and “positive result” with Neutrophil Elastase [2] (final elastase 3, 1.5 or 1 units/ml).
With “Val-Arg-[pABA]-Gly (VR[4Abz]G-OH; N-terminus assumed; SMILES CC(C)[C@H](N)C(=O)N[C@@H](CCCNC(=N)N)C(=O)Nc1ccc(C(=O)NCC(=O)O)cc1) [chromogenic polypeptide; pABA is para-amino benzoic acid]”, in the assay with papain (papain sample, 5 min on first sheet, read ten minutes after folding onto DMAC sheet), the “colour change of DMAC in booklet assay” value is listed as “changed from yellow to red”. Besides, the “rate of colour change compared with BANA” value with papain (papain, identical conditions, FIG. 7C) is recorded as “faster detectable colour change than BANA”.
